The target of test [1] is T1, Ctf3 complex (Ctf3, Mcm16, Mcm22), wild type, recombinant (yeast, UniProt Q12748;Q12262;P47167). The test can be described thus: fluorescence polarisation.
In test [2] the target is T1, Ctf3 complex (Ctf3, Mcm16, Mcm22), wild …. The test can be described thus: pull-down.

Consider four molecules from article doi:10.1101/2020.12.30.424835 (bioRxiv, 2020).

T1 sequence (Q12748 whole entry, chain 1 of 3): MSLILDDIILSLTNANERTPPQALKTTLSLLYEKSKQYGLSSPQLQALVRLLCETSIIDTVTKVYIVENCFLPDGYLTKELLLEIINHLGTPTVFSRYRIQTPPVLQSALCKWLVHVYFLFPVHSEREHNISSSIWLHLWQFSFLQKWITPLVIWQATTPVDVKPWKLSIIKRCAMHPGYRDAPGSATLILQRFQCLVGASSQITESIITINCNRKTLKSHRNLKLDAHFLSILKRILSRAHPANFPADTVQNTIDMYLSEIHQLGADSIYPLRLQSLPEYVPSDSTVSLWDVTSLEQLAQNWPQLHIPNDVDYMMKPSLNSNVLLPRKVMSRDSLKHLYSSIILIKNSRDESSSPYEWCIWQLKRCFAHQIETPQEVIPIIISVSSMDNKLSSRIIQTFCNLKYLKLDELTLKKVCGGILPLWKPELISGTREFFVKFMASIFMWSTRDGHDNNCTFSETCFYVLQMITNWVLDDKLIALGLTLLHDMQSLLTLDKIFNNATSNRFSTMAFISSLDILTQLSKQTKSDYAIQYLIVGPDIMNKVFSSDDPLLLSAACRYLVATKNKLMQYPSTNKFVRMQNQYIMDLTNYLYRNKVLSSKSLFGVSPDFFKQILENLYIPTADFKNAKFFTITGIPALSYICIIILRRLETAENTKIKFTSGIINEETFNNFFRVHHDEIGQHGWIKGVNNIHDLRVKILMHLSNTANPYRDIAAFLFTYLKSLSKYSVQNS
T1 sequence (Q12262 whole entry, chain 2 of 3): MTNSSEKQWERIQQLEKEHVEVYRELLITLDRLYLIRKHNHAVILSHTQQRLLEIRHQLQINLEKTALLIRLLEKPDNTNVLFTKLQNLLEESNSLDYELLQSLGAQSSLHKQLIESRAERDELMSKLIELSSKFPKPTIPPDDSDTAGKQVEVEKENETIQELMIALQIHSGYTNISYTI
T1 sequence (P47167 whole entry, chain 3 of 3): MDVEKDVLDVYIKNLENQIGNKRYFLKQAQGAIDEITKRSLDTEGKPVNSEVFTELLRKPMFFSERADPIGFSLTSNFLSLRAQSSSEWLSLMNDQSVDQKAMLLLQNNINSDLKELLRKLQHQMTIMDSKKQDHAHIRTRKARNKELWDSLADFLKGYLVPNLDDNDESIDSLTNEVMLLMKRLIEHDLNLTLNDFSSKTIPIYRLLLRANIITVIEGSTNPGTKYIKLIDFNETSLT

On to DDSDVNLIGSS (fITC-AHA on the N-terminus) [FITC-Ulp2-KIM peptide (fITC-AHA-DDSDVNLIGSS; Ulp2-927-937)], for which the Kd in test [1] was roughly 900 nM.

For DDSDVNLIGSS (domain or fragment) [GST-Ulp2-927-937 (minimal Ulp2-KIM, wild type)], in test [2], the binding result is “binds”.

For DDSDVALIGSS (domain or fragment) [GST-Ulp2-927-937 N932A], the binding result in test [2] is “binds”.

In the case of ADSDVNLIGSS (domain or fragment) [GST-Ulp2-KIM 1DA-1 (minimal KIM, D927A)], in test [2], the binding result was “binds”.
